Experimental data taken from patent US20210403595 (published 2021).
Like-named read-outs stand apart in the source and are kept apart here.

How the values were obtained:
[1] = target: human CD3 epsilon/delta heterodimer, Fc-tagged (human); experiment: SPR, 25C antibody-capture
[2] = target: human CD3 epsilon/delta heterodimer, Fc-tagged (human); experiment: SPR, 25C antigen-capture
[3] = target: human CD3 on Jurkat cells (human); experiment: FACS
[4] = target: human CD3 epsilon/delta heterodimer, Fc-tagged (human); experiment: SPR, 25C antibody-capture; remark: listed apart in the source
[5] = target: human CD3 on Jurkat cells (human); experiment: FACS; remark: listed apart in the source
[6] = target: human PSMA, N-terminal 6xHis (soluble) (human); experiment: SPR, 37C
Sequence of human PSMA, N-terminal 6xHis (soluble) (human) (A4UU12 whole entry): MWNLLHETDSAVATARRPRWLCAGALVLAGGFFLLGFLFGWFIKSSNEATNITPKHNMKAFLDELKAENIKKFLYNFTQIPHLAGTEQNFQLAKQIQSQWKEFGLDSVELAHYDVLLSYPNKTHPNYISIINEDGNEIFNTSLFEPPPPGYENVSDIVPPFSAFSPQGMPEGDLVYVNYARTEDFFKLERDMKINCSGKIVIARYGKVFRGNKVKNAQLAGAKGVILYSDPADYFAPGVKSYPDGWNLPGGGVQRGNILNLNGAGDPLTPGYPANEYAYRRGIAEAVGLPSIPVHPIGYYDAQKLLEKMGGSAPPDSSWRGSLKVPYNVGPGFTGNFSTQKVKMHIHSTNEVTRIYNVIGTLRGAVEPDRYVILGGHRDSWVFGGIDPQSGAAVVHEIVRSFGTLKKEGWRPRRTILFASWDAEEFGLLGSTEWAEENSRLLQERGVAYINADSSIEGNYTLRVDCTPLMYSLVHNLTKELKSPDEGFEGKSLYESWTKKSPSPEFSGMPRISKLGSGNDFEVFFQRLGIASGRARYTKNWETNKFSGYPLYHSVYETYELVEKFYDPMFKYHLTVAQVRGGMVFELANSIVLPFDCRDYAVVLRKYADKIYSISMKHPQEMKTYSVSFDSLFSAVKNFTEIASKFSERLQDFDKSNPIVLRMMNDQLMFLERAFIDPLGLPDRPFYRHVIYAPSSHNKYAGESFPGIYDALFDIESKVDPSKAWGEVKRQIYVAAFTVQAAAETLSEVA

[7] = target: human CD3 epsilon/delta heterodimer, Fc-tagged (human); experiment: SPR, 25C antibody-capture; remark: listed apart in the source
[8] = target: human CD3 on Jurkat cells (human); experiment: FACS; remark: listed apart in the source
[9] = target: T1, cynomolgus CD3 on T cells (cynomolgus monkey); experiment: FACS
T1 chain: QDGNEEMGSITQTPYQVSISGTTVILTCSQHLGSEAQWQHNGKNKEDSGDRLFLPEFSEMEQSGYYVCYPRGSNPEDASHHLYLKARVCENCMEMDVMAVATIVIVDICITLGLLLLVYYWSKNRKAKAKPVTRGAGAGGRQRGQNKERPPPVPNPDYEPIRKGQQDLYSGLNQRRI

[10] = target: human CD3 epsilon/delta heterodimer, Fc-tagged (human); experiment: SPR, 25C antigen-capture; remark: listed apart in the source
[11] = target: human PSMA, N-terminal 6xHis (soluble) (human); experiment: SPR, 37C; remark: listed apart in the source
[12] = target: human CD3 on Jurkat cells (human); experiment: FACS; remark: listed apart in the source
[13] = target: human PSMA on cells (human); experiment: FACS, 22RV1
Sequence of human PSMA on cells (human) (A4UU12 whole entry): as the sequence (A4UU12 whole entry) above

Sequence of human CD3 on Jurkat cells (human) (chain, as listed by the source, chain 1 of 2): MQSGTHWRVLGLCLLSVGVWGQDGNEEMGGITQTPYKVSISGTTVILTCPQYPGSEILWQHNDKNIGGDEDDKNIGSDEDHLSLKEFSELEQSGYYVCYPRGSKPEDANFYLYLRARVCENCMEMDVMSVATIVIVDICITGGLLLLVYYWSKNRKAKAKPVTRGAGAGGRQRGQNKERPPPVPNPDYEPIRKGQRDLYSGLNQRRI
Sequence of human CD3 on Jurkat cells (human) (chain, as listed by the source, chain 2 of 2): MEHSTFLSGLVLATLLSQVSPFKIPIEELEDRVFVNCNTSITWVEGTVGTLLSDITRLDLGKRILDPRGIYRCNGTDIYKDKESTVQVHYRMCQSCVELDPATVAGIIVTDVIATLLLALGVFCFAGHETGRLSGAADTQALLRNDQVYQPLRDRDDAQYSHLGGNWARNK
Sequence of human CD3 epsilon/delta heterodimer, Fc-tagged (human) (chain, as listed by the source mutant, chain 1 of 2): as the sequence (chain, as listed by the source, chain 1 of 2) above
Sequence of human CD3 epsilon/delta heterodimer, Fc-tagged (human) (chain, as listed by the source mutant, chain 2 of 2): as the sequence (chain, as listed by the source, chain 2 of 2) above

B1: H1xH7221G3 (antibody, V domains shown)
VH: EVQLVESGGGLVQPGRSLRLSCAASGFTFDDYSMHWVRQAPGKGLEWVSGISWNSGSIGYADSVKGRFTISRDNAKNSLYLQMNSLRAEDTALYYCAKDGSGYGYFYYYGMDVWGQGTTVTVSS
VL: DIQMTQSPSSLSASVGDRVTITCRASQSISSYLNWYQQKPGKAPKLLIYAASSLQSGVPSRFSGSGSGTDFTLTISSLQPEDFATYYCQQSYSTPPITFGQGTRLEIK
Does B1 bind [1]?
Result: no binding

B2: H1H7279P (antibody, V domains shown)
VH: EVQLVESGGGLVKPGGSLRISCAASGFSFINAWMNWVRQAPGKGLEWVGRIKSISDGGTTDYAASVKGRFTISREDSKNMLFLEMNSLKTEDTAVFYCTTEVARTPNYWGRGTLVTVSS
VL: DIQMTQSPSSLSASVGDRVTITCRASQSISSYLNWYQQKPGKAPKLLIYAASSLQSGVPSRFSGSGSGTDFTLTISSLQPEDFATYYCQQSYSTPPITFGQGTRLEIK
Does B2 bind [2]?
Result: no binding

Does B2 bind [3]?
Result: no binding

B3: H1H7194P (antibody, V domains shown)
VH: EVQLVESGGGLVQPGRSLRLSCAASGFTFGDYTMHWVRQAPGKGLEWVSDISWNSGSKDYADSVKGRFTISRDNAKNSLYLQMNSLRTEDTAFYYCAKDSRGYGLYYHLGLDVWGQGTTVTVSS
VL: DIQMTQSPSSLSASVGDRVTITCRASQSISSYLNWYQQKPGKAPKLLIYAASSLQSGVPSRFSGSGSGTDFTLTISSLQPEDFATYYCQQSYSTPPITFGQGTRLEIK
For B3, which Kd [4] is on record?
The Kd was 13 nM.

What about the EC50 [5] of the same binder?
The EC50 was 1.5 nM.

B4: H1M11453N (antibody, V domains shown)
VH: EFQVVESGGGLVKPGGSLRLSCVVSGFTFSNYNMNWVRQAPAKGLEWVSSISTGSSDIYYADSVKGRFTISRDNAKNSLYLQMNSLRVEDTAVYYCARDIIGTTRDWGQGTLVTVSS
VL: DIQMTQSPSSLSASVGDSVTITCRASQSINNYLNWYQQKPGKAPKLLIYTASSLLSGVPSRFSGSGSGTDFTLTISGLHPEDFATYFCQQSFSTPPITFGQGTRLDIK
Which Kd [6] does the source give for B4 here?
Its Kd is 1.93 nM.

B5: H1H5752P (antibody, V domains shown)
VH: QVQLVESGGGVVQPGRSLRPSCAASGFSFRDYGMHWVRQAPGKGLEWMAHIWYNGKNKYYADSVKGRFTISRDNSKNTLYLQMNSLRPEDTAVYYCARDGVSARGTPFDYWGQGTLVTVSS
VL: ETTLTQSPAFMSAAPGDKVSISCIASQYIDDDVNWYQQKPGETAIFIIQEASTLVPGISPRFSGSGYGTHFTLTINNIDSEDAAFYFCLQHDNFPYTFGQGTKLEIK
Does B5 bind [7]?
Result: no binding

B6: H1H5782P (antibody, V domains shown)
VH: EVQLVESGGGLVQPGRSLRLSCAASGFTFDDYAMHWVRQAPGKGLEWVSGISWNSGSKDYADSVKGRFTISRDNTRNSLFLQMNSLRTEDTALYYCAKDKSGYGSFYYGMDVWGQGTTVTVSS
VL: not shown
Which results are given for B6?
binding result [7]: no binding; binding result [8]: no binding

B7: H1H2690N (antibody, V domains shown)
VH: EVQLVESGGGLVQPGRSLRLSCAASGFTFDDYTMHWVRQAPGKGLEWVSGISWNSGSIGYADSVKGRFTISRDNAKKSLYLQMNSLRAEDTALYYCAKDNSGYGHYYYGMDVWGQGTTVTVAS
VL: EIVMTQSPATLSVSPGERATLSCRASQSVSSNLAWYQQKPGQAPRLLIYGASTRATGIPARFSGSGSGTEFTLTISSLQSEDFAVYYCQHYINWPLTFGGGTKVEIK
B7 was tested. Which EC50 [9] did it give?
The EC50 was 5.66 nM.

B8: H1H7232P (antibody, V domains shown)
VH: EVQLVESGGGLVHPGRSLRLSCAASGFTFDDYTMHWVRQAPGKGLEWVSDISWNSGSRGYADSVKGRFTISRDNAENSLYLQMNSLRAEDTALYYCAKDKSGYGHYYYYAMDVWGQGTTVTVSS
VL: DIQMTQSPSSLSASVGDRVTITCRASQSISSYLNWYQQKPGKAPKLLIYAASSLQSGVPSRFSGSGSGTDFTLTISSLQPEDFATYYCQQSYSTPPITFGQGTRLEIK
Which Kd [4] does the source give for B8 here?
Its Kd is 220 nM.

And the Kd [10]?
The Kd was 10 nM.

What about the EC50 [5] of the same binder?
Its EC50 is 1.5 nM.

B9: H1H7250P (antibody, V domains shown)
VH: QVQLVESGGGLVQPGRSLRLSCAASGFTFDDYTMHWVRQGPGKGLEWVSDIGWNSNTKGYADSVKGRFTISRDNAKNSLYLQMNSLRPEDTALYFCVKDKSGYGKFFIGLDVWGQGTMVTVSS
VL: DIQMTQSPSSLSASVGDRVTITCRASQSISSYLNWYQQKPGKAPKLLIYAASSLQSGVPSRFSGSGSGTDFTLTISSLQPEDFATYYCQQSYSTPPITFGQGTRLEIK
For B9, which Kd [10] is on record?
Its Kd is 0.82 nM.

B10: H1H11835P2 (antibody, V domains shown)
VH: EVQLVESGGGLVQSGGSLRLSCEASGFTFSNYWMTWIRQGPGKGLEWVANIKPDGTENYYVDSVKGRFTISRDNARNSLYLQMTSLKAEDTAVYYCGRMIQFVINIWGQGTLVTVSS
VL: DIQMTQSPSSLSASVGDSVTITCRASQSINNYLNWYQQKPGKAPKLLIYTASSLLSGVPSRFSGSGSGTDFTLTISGLHPEDFATYFCQQSFSTPPITFGQGTRLDIK
For B10, which Kd [11] is on record?
The Kd was 14 nM.

B11: H2M11899N (antibody, V domains shown)
VH: QVQLVESGGGVVQPGRSLRLSCAASGFTFSSYDIHWVRQAPGKGLEWVSVIWYDGSNKYYADSVKGRFTISRDNSKNTLYLQMNSLRAEDTAVYYCARTVAARNYDYYVMDVWGQGTTVTVSS
VL: DIQMTQSPSSLSASVGDSVTITCRASQSINNYLNWYQQKPGKAPKLLIYTASSLLSGVPSRFSGSGSGTDFTLTISGLHPEDFATYFCQQSFSTPPITFGQGTRLDIK
Which Kd [6] does the source give for B11 here?
The Kd was 1.76 nM.

B12: H2M2689N (antibody, V domains shown)
VH: QVQLVESGGGVVQPGRSLRLSCAASGFTFSRKGMHWVRQAPVKGLEWVAVISYDGSNKYYADSVKGRFTISRDNSKNTLYLQMNSLTAEDTAVYYCAKEGGHDYGGTFDYWGQGTLVTVSS
VL: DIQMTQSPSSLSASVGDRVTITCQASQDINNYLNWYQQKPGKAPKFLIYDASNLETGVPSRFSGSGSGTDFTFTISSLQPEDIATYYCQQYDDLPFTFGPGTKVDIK
Does B12 bind [12]?
Result: no binding

B13: H1xH7221G5 (antibody, V domains shown)
VH: EVQLVESGGGLVQPGRSLRLSCAASGFTFDDYSMHWVRQAPGKGLEWVSGISWNSGSIGYADSVKGRFTISRDNAKNSLYLQMNSLRAEDTALYYCAKDGSGYGKFYYYGMDVWGQGTTVTVSS
VL: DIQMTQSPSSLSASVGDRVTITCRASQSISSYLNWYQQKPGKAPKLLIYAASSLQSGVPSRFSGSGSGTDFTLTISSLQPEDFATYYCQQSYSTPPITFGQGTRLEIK
Does B13 bind [1]?
Result: no binding

B14: H1H7221P (antibody, V domains shown)
VH: EVQLVESGGGLVQPGRSLRLSCVASGFTFDDYSMHWVRQAPGKGLEWVSGISWNSGSKDYADSVKGRFTISRDNAKNSLYLQMNSLRAEDTALYYCAKYGSGYGKFYHYGLDVWGQGTTVTVSS
VL: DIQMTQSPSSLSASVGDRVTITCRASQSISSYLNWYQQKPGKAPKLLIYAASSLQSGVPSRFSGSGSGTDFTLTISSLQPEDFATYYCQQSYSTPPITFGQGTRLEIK
With B14 as the binder, how does the EC50 [5] read?
The EC50 was 1.4 nM.

B15: BSPSMA/CD3-001 PSMA arm (antibody, V domains shown)
VH: QVQLVESGGGVVQPGRSLRLSCAASGFTFITYGMHWVRQAPGKGLEWVAIIYYDESNKYYADSVKGRFTISRDISKNTLYLQMNGLRAEDTAVYYCARAPRVAVEEDYSYYYGMDVWGQGTTVTVSS
VL: EIVMTQSPATLSVSPGERAILSCRASQNINSNLAWYQQKPGQAPRLLIYGASTRATGVPARFSGSGSGTEFTLTIRSLQSEDFAVYYCQQYYNWPITFGHGTRLEIK
Which EC50 [13] does the source give for B15 here?
The EC50 was 78.5 nM.
